In US20260273029A1, “DRY EYE TREATMENT” (Inoculus Ventures, LLC, priority 2022, published 2026):

B1: β-Amylase from sweet potato: β-Amylase from sweet potato, Sigma Aldrich research grade (protein, UniProt P10537 2-499, looked up)
Beta-amylase: APIPGVMPIGNYVSLYVMLPLGVVNADNVFPDKEKVEDELKQVKAGGCDGVMVDVWWGIIEAKGPKQYDWSAYRELFQLVKKCGLKIQAIMSFHQCGGNVGDAVFIPIPQWILQIGDKNPDIFYTNRAGNRNQEYLSLGVDNQRLFQGRTALEMYRDFMESFRDNMADFLKAGDIVDIEVGCGAAGELRYPSYPETQGWVFPGIGEFQCYDKYMVADWKEAVKQAGNADWEMPGKGAGTYNDTPDKTEFFRPNGTYKTDMGKFFLTWYSNKLIIHGDQVLEEANKVFVGLRVNIAAKVSGIHWWYNHVSHAAELTAGFYNVAGRDGYRPIARMLARHHATLNFTCLEMRDSEQPAEAKSAPQELVQQVLSSGWKEYIDVAGENALPRYDATAYNQMLLNVRPNGVNLNGPPKLKMSGLTYLRLSDDLLQTDNFELFKKFVKKMHADLDPSPNAISPAVLERSNSAITIDELMEATKGSRPFPWYDVTDMPVDGSNPFD
B2: α-Amylase from human saliva: α-amylase from human saliva (Sigma, catalog #A1031) (protein, UniProt P0DUB6 16-511, looked up)
Alpha-amylase 1A: QYSSNTQQGRTSIVHLFEWRWVDIALECERYLAPKGFGGVQVSPPNENVAIHNPFRPWWERYQPVSYKLCTRSGNEDEFRNMVTRCNNVGVRIYVDAVINHMCGNAVSAGTSSTCGSYFNPGSRDFPAVPYSGWDFNDGKCKTGSGDIENYNDATQVRDCRLSGLLDLALGKDYVRSKIAEYMNHLIDIGVAGFRIDASKHMWPGDIKAILDKLHNLNSNWFPEGSKPFIYQEVIDLGGEPIKSSDYFGNGRVTEFKYGAKLGTVIRKWNGEKMSYLKNWGEGWGFMPSDRALVFVDNHDNQRGHGAGGASILTFWDARLYKMAVGFMLAHPYGFTRVMSSYRWPRYFENGKDVNDWVGPPNDNGVTKEVTINPDTTCGNDWVCEHRWRQIRNMVNFRNVVDGQPFTNWYDNGSNQVAFGRGNRGFIVFNNDDWTFSLTLQTGLPAGTYCDVISGDKINGNCTGIKIYVSDDGKAHFSISNSAEDPFIAIHAESKL
B3: α-Amylase from Bacillus subtilis: α-amylase from Bacillus subtilis (Sigma, catalog #10070) (protein, UniProt P00691 42-659, looked up)
Alpha-amylase: LTAPSIKSGTILHAWNWSFNTLKHNMKDIHDAGYTAIQTSPINQVKEGNQGDKSMSNWYWLYQPTSYQIGNRYLGTEQEFKEMCAAAEEYGIKVIVDAVINHTTSDYAAISNEVKSIPNWTHGNTQIKNWSDRWDVTQNSLLGLYDWNTQNTQVQSYLKRFLDRALNDGADGFRFDAAKHIELPDDGSYGSQFWPNITNTSAEFQYGEILQDSASRDAAYANYMDVTASNYGHSIRSALKNRNLGVSNISHYASDVSADKLVTWVESHDTYANDDEESTWMSDDDIRLGWAVIASRSGSTPLFFSRPEGGGNGVRFPGKSQIGDRGSALFEDQAITAVNRFHNVMAGQPEELSNPNGNNQIFMNQRGSHGVVLANAGSSSVSINTATKLPDGRYDNKAGAGSFQVNDGKLTGTINARSVAVLYPDDIAKAPHVFLENYKTGVTHSFNDQLTITLRADANTTKAVYQINNGPETAFKDGDQFTIGKGDPFGKTYTIMLKGTNSDGVTRTEKYSFVKRDPASAKTIGYQNPNHWSQVNAYIYKHDGSRVIELTGSWPGKPMTKNADGIYTLTLPADTDTTNAKVIFNNGSAQVPGQNQPGFDYVLNGLYNDSGLSGSLPH

How the values were obtained:
S. Aureus biofilms [1] = conditions: existing data; cited from earlier work
S. Aureus biofilms [2] = assay: Preliminary assessment of amylases on biofilms: reduction of existing biofilm; assay type: cell-based; conditions: for Reduces Biofilm: Table 1, preliminary assessment of activity on Biofilms
Description: (§1) Non-limiting examples of amylases contemplated by the disclosure and their preliminary assessment of their activity on Biofilms is listed on Table 1: […]

S. Aureus biofilms [3] = assay: Preliminary assessment of amylases on biofilms: prohibition of biofilm growth; assay type: cell-based; conditions: Table 1, preliminary assessment of activity on Biofilms
Description: as §1

| Molecule | in-vitro effectiveness at the inhibition and reduction of S. Aureus biofilms (S. Aureus biofilms [1]) | Reduces Biofilm (S. Aureus biofilms [2]) | Prohibits Biofilm Growth (S. Aureus biofilms [3]) | Reduces Biofilm, time (S. Aureus biofilms [2]; Table 1, reduces biofilm only after this time) |
| --- | --- | --- | --- | --- |
| B1 | certain in-vitro effectiveness | No | Partially |  |
| B2 | certain in-vitro effectiveness | No | Yes |  |
| B3 | certain in-vitro effectiveness |  | Yes | ≥ 3 h |
